The nature of the data set: soluble on expression in E. coli; label from the status in PepcDB or PDB records.
As for “MLQNQYVREMRKYGVRGLRYDAAKHSKHEQIERSITPPLKNYNERLHNTNLFNPKYHEKAVMNYMEYLVTCQLDEEQMSSLLYERDDLSAIDFSLLMKTIKAFSFGGDLQTLASKPSSTISSIPSKRRILININHDFPNNGNLFNDFLFNHQQDEQLAMAYMAALPFSRPLVYWDGQVLKSTTEIKNYDGSTRVGGEAWLNKGCSTYQQLYNEFHALYIDKAGIWSAFEGVFATKNVLAFSRGDSVNINHSPHDGLVIINKGNEEVEGAWPNKLQPGKYKNMGSNSVNIIINNTRKIIPPGKAFMLRGGTLNINIPGRSALLLGKTGEPLNYLYL”, the “soluble on expression in E. coli” value is “not soluble”. For “MSNFISPVYEIKSIPIEKISPNDYNPNSVAPPEMKLLYDSIKSDGYTMPIVCYYDKEEDRYSIVDGFHRYRIMLDYSDIYERESGRLPVSVIDKSLDYRMASTIRHNRARGSHDVDLMSQIVKDLHECGRSDNWIAKHLGMDKDEILRLKQITGLASLFKDHEFNQSWEPEELLNE”, the “soluble on expression in E. coli” value is recorded as “soluble”. Consider “MKTFPLQSLTIIEAQQKQFALVDSICRHFPGSEFLTGGDLGLTPGLNQPRVTQRVEQVLADAFHAQAAALVQGAGTGAIRAGLAALLKPGQRLLVHDAPVYPTTRVIIEQMGLTLITVDFNDLSALKQVVDEQQPDAALVQHTRQQPQDSYVLADVLATLRAAGVPALTDDNYAVMKVARIGCECGANVSTFSCFKLFGPEGVGAVVGDADVINRIRATLYSGGSQIQGAQALEVLRGLVFAPVMHAVQAGVSERLLALLNGGAVPEVKSAVIANAQSKVLIVEFHQPIAARVLEEAQKRGALPYPVGAESKYEIPPLFYRLSGTFRQANPQSEHCAIRINPNRSGEETVLRILRESIASI”, for which the “soluble on expression in E. coli” value is “soluble”. Take “MSLKIAVLDDYQDAVRKLDCFSLLQDHEVKVFNNTVKGVGQLAARVADVEAIVLIRERTRVTRQLLDRLPKLKIISQTGRVSRDAGGHIDLEACTDKGVVVLEGKGSPVAPAELTWALVMAAQRRIPQYVASLKHGAWQQSGLKSTTMPPNFGIGRVLKGQTLGIFGYGKIGQLVAGYGRAFGMNVLVWGRENSKERARADGFAVAESKDALFEQSDVLSVHLRLNDETRGIVTVADLTRMKPTALFVNTSRAELVEENGMVTALNRGRPGMAAIDVFETEPILQGHTLLRMENCICTPHIGYVERESYEMYFGIAFQNILDILQGNVDSVANPTALAPALIRAEGHHHHHH”: the “soluble on expression in E. coli” value was “soluble”. For “KKILVIGDLIADYYLWGKSERLSPEAPVPVLEVQRESKNLGGAANVANNLISLKAKVFLCGVVGDDLEGEHFISALKARGIDASGILIDKTRCTTLKTRIIAQNQQIARVDKEIKDPLNADLRKKLLDFFTEKIQEIDGVILSDYNKGVLDFELTQAMIALANQHHKLILCDPKGKDYSKYSHASLITPNRTELEHALHLKLDSHANLSKALQILKETYHIAMPLVTLSEQGIAFLEKGELVNCPTIAKEVYDVTGAGDTVIASLTLSLLESMSLKDACEFANAAAAVVVGKMGSALASLEEIALILNQTHPKILSLE” the value was “not soluble”. For “MPSFREDALSRIRHDGDFDAVVIGGGINGIAAYRDLALQGLRVLLVERNDFSSGCSAAPSRMIHGGLRYLENGEFGLVAESLRERDALLTLAPHMVQPLPTTIPIFSMFSGLFNAAATFFGSGGKPASRGALAIKAGLTLYDFVTRKNRLLPRHEFRGAGKTLKRWPGLTPDIRYSATYYDAWISQPERLALELLIDTSADAPQSIALNYAELVRNGDEYHIRAEETDETLPIRPRIIVNATGAWIDETIGTLSAGPAAEKQKPTVSGTKGSHLIIANDGLLKALNGHMIFFENADNRVCILFPYLGRVLAGSTDIKVDRPERVRCEPDERDYILDAIRQVFPDITVDHSDIVFSFSGIRPLPRSDAAFTGRISRSHFIHRVAGDPPQLCMIGGKWTTFRAFGEQVSDEVLAFLGRKRLTGTMNRPIGGGRNFPTGAGRLPALLSEQFSIDRRRAQHLALAYGSRAFELMGFCRGRPDDAPLSQKSPITAAEILWLIRCEHVRHLTDLILRRTTLAIAGLIDADLIDAILGVAARELGWTPTRAAVERQQLTQELETFYGVTPAMLQNRCKENALEHHHHHH” the value was “soluble”; for “MAHHHHHHMAVSSARESVTDLLSGREDVRTVSSSTMAQESTTIKTGELGEDGGGDGVISDRSNVLARVFEELLDAEVSMNPAKLREASRAGIPSLYRSTVYRYLLGITFVDHSREMSLERMQEKDFEQLLTAFGRIVASDGTGQRPSVKGRIMQPLASPRLHDSETIPLITRDESQFANGYRCSDRSFSVGYAAWIKFRANLRYLPRFVGNPERRQRMECAWQALHVTSSGATPDEVENLFELALVFESVHGTARDIYFSTSSLYYLLTHHGNVLQNAQCLQRMCGTFLMLFRATNFDLYRHFVAESVTAVEWLPGMLKTLLAGRLHEEDLLRLWDVYLADALEYLGFPLHPYVCLAILEEMTEVLLECEKSGIIERLRHLPRIEAGSIIQKAISLKESVFSKDLL”, “not soluble”; for “DIMVVVDAGHGGKDPGAVGSRGEREKDVVLSIAQLLAKRLKREKGFDVRLVRNDDFFVPLRKRVEFAHKSNADMFISVHADAAPRLTASGASVFALSEGGATSATARFMAQRENGADLLGATSLLNLKDKDPMLAGVILDMSMNATIAASLQLGHTILGSLEGITTLHQKRVEQAGFAVLKSPDVPSILVETGFISNSRDSQRLVTARHQQAVADGLFDGLQRYFQRNPPMDSHLAWMQAQKQEQQA”, “not soluble”. As to “MGSDKIHHHHHHMARPRKTIVSLDDTPYYHCCSRVVRKAFLCGIDSATGENFEHRRAWVEGRMFELATIFAMDICAYAVMSNHLHIVLRVDAEQAKQWTDKQVLIQWHKGFKGTLLTQRFVKDEVLDEFELKTVIDSVAVYRERLTSISWFIRALCEPIARMANKEDGCTGHFWEGRFKSQALLDEAAVLACMAYVDLNPVRAKMAATPETSDYTGIQRRINAALKGEQPNELLPFLGNERDNMPKGLMFSAKDYLLLVEDTGRIIRDDKRGAISRSSQYILDRLNIPTENWLKITKDFGHLFKGAVGSLQALSQYCEHLERKRRQSAANCQRWLCG”, the “soluble on expression in E. coli” value is on record as “not soluble”. As to “MDSVVSDVSDLVEPDEELKAWQTDRTRAPIATKIVVAGGFGAGKTTLVTAVSEITPLQTEALMTQASEDTDDLTGTPDKLTTTVAMDFGRITLDDDLVLYLFGTPGQQRFWFMWDDLVRGAIGAVVLADTRRLSDCFPALDYFESCGLPYVVAVNHFDGSEKFEPEDVREALTVPAHIPVMIMDARRRISVIETLLALVGHALEVSPELEHHHHHH”, the “soluble on expression in E. coli” value is “soluble”. As for “MISTPLSKEFEWPAKPVSLELQHQVEQFYYREAQLLDHHAFQAWFALLAEDIHYWMPIRTVRTAREQGLEYVPAGANAHFDDTHATMYGRIRQKTSDLNWAEDPPSRTRHLVSNVIVREMDTPGTLEVASAFLLYRSRLERQVDVFAGERRDVLRIADNPLGFQIAKRTIILDQSTVLANNLSVFF”, the “soluble on expression in E. coli” value was “soluble”. Next, “MIVREGSAEILVPEVYHGPGKRGTGFYNADQKINRDITIEFIKKMGIRNVLDGFGGTGIRGIRISKETDSAVTISEVSPDSYRLIRDNVERNGSQASVINDSFECVLQHGAYEYVDVDPYGSPVPYLDAALMGVKRNGFLGVTATDQSALTGSVPHKTRIRYDALIKNDTFRHEMGIRLLIGYMAKRAASLGRFIDPLISIWHGHYYRVFVRVRKGFEGAGRMMQNLGYVNKHNLLSGIYQDMDEGPVWKGNLQDNAVAEAVLASAGHKAFNPEENRLLFCDLTDIARARHTSLPDIESVIDALSSSGHAASRTMFSPTGIKTDASCDLVESLMMDTLHRRSPA”: “not soluble”; “MAGSTLTVKDLHVSIDGKEILKGVNLEVKGGEIHAIMGPNGTGKSTLSSAIMGHPKYEVTEGSIIIDGEDVLEMEVDERAQAGLFLAMQYPSEISGVTNADFLRSAINARREEGDEISLMKFIRKLDKNMEFLEMDPEMAQRYLNEGFSGGEKKRNEILQLMMIEPKIAILDEIDSGLDIDALKVVSKGINEMRGEEFGCLMITHYQRLLNYITPDFVHVMMNGRIVKSGGPELAQRLEAEGYDWIKKELGIEDETTEQEA”: “not soluble”; “MGRAFEYRRAAKEKRWDKMSKVFPKLAKAITLAAKDGGSEPDTNAKLRTAILNAKAQNMPKDNIDAAIKRASSKEGNLSEITYEGKANFGVLIIMECMTDNPTRTIANLKSYFNKTQGASIVPNGSLEFMFNRKSVFECLKNEVENLKLSLEDLEFALIDYGLEELEEVEDKIIIRGDYNSFKLLNEGFESLKLPILKASLQRIATTPIELNDEQMELTEKLLDRIEDDDDVVALYTNIELEHHHHHH”: “soluble”. With “MSLNPTIQPYQFNIIKEQVAVLLNTYTSVNDATTVKTVQALCAEKINGLFPEEHPAVTILLDKVMDRRLTRARAEKYLDELKETVLPFKEPSTPQVTKVFRKVKKLKIPEWENMDLRNNTYVGWNDAGTQKIFILAYRENKLIGVHGTLSPTIVKGVCSICQTITNVSMFLATTKSGGDGTYTKKGNYICHDSDTCNQQLTQPEYLEAFMENVKAVKEGHHHHHH”, the “soluble on expression in E. coli” value is recorded as “soluble”. For “MFRRKLTALDYHNPAGFNCKDETEFRNFIVWLEDQKIRHYKIEDRGNLRNIHSSDWPKFFEKYLRDVNCPFKIQDRQEAIDWLLGLAVRLEYGDNAEKYKDLVPDNSKTADNATKNAEPLINLDVNNPDFKAGVMALANLLQIQRHDDYLVMLKAIRILVQERLTQDAVAKANQTKEGLPVALDKHILGFDTGDAVLNEAAQILRLLHIEELRELQTKINEAIVAVQAIIADPKTDHRLGKVGRLEHHHHHH” the value was “soluble”.

With “MGSDKIHHHHHHANDETIEINYGESISLSAVAGKTTRTGSEATTTNSIRNFHVLAFTQGATYMDCDVRKQGNVWSYGDTKFWPETDVDFYSYSPMNTQNGNVSIKVEGDKKIANYNVPGDEDLLYALNQAEKKNEHEGERPVMVNFRHALSQIVFRIRNTSSNLTVFVDAVKVEGIEKQGTFFWPTLSTTTQWQGTEKDTETDNSWGRWNIVYNKENAKQNNYAAEIIPIMEQGFVGSIDASVRDLTVKTDNGYKGLLLLPQTLNPWITKTGGTDENPEYKITGTARVLVKCKLVDTVSNVQLWPNTNSHEETTWVGVSLVGEPKDINGKTEQVWKQGKRYVYTLIFGEGGGFNPDPDPENPDPEPVLVPITFAVTVDDFVEYPQDLDASVPNSNSGQ”, the “soluble on expression in E. coli” value is “not soluble”. In the case of “MAHHHHHHMNESVEQLFDELISDFNKNDKIGEGNESFNIREKVGNKWTNEDILNNINKNDFSKYTEYSLSSLYITDERIHIDEDNKFQDFLNVITKASDVNNIYKWIDSYYKYDSKEELDILSPKAQKKEYIFREYLEPFHLKGLCLLRKYEKGAILKSSEKSKVDVNIVSEYIVHNTYKQIMKSFGYYLSHKIYIKAHIFHNKYGNSDHIIVLILQHFKDENFKQPLFHDRALVQIKSYSNDNKYSELTQKNLLHYAEIFKPFVSLRKLNYNFVEEFKDKIMFGI”, the “soluble on expression in E. coli” value was “soluble”.

Take “MGSDKIHHHHHHMPENYTPAAAATGTWTEEEIRHQPRAWIRSLTNIDALRSALNNFLEPLLRKENLRIILTGAGTSAFIGDIIAPWLASHTGKNFSAVPTTDLVTNPMDYLNPAHPLLLISFGRSGNSPESVAAVELANQFVPECYHLPITCNEAGALYQNAINSDNAFALLMPAETHDRGFAMTSSITTMMASCLAVFAPETINSQTFRDVADRCQAILTSLGDFSEGVFGYAPWKRIVYLGSGGLQGAARESALKVLELTAGKLAAFYDSPTGFRHGPKSLVDDETLVVVFVSSHPYTRQYDLDLLAELRRDNQAMRVIAIAAESSDIVAAGPHIILPPSRHFIDVEQAFCFLMYAQTFALMQSLHMGNTPDTPSASGTVNRVVQGVIIHPWQA”: the “soluble on expression in E. coli” value was “not soluble”.

The record behind these values is the DeepSol protein solubility set.
